Here are results for 2 substances from patent publication US20210070875A1.

“And” between values parts separate entries of the source, which are not always exact repeats. Equal entries are not always repeated.

The target of test [1] is C5aR extracellular N-terminus polypeptide (UniProt P21730). As to the kind of experiment: ELISA, polypeptide coated at 1.0 µg/mL. (In general: ELISA stands for enzyme-linked immunosorbent assay.)
The target in test [2] is C5aR polypeptide-03 (UniProt P21730). The test can be described thus: ELISA, polypeptide coated at 1.0 µg/mL.
Test [3] deals with C5aR polypeptide-04 (UniProt P21730). The test can be described thus: ELISA, polypeptide coated at 1.0 µg/mL.
Test [4] has as its target C5aR polypeptide-05 (UniProt P21730). The test can be described thus: ELISA, polypeptide coated at 1.0 µg/mL.
The target of test [5] is human C5aR (human) (UniProt P21730). As to the kind of experiment: cell-based or functional assay.
Test [6] has the same target. As to the kind of experiment: FACS, CHOK1-hC5aR cells, 0.0007 nM antibody. On the technique in general: A flow cytometer gives signals particle by particle.
Test [7] shares this target. The test can be described thus: FACS, CHOK1-hC5aR cells, 0.0067 nM antibody.
Test [8] shares this target. As to the kind of experiment: FACS, CHOK1-hC5aR cells, 0.0666 nM antibody.
The target is the same in test [9]. As to the kind of experiment: FACS, CHOK1-hC5aR cells, 0.6660 nM antibody.
Test [10] shares this target. The test can be described thus: FACS, CHOK1-hC5aR cells, 6.6600 nM antibody.
For test [11] the target is unchanged. The test can be described thus: FACS, CHOK1-hC5aR cells, 66.6000 nM antibody.
Test [12] has the same target. The test can be described thus: FACS, CHOK1-hC5aR cells, 666.0000 nM antibody.
Test [13] has the same target. As to the kind of experiment: FACS, CHOK1-hC5aR cells, 0.0000 nM antibody (background).

Sequence of human C5aR (human) (P21730 other isoform, or with tags, fused parts or gaps): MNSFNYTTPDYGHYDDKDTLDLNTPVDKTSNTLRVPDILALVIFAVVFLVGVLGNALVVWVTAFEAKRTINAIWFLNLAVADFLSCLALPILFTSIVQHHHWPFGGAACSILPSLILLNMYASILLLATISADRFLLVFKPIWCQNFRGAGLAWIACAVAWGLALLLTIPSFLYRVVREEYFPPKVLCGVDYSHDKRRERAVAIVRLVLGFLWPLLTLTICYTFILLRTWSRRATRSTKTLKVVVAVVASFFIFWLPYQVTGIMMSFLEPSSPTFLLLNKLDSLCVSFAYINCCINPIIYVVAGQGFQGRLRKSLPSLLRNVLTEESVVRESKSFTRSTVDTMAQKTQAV

IgG control (human IgG) (antibody): the OD450 nm was 0.07 OD450 nm in [1], 0.07 OD450 nm in test [2], 0.06 OD450 nm in [3] and 0.07 OD450 nm in [4].
Take mIgG control (murine IgG) (antibody): in test [5], the C5a-induced human neutrophil migration, Celltiter-Glo fluorescence intensity value, Parallel sample 1 (fluorescence intensity) came out at 5170; the C5a-induced human neutrophil migration, Celltiter-Glo fluorescence intensity value, Parallel sample 2 (fluorescence intensity) came to 5000; the C5a-induced human neutrophil migration, Celltiter-Glo fluorescence intensity value, Parallel sample 3 (fluorescence intensity) turned out to be 2580; the C5a-induced human neutrophil migration, Celltiter-Glo fluorescence intensity value, Parallel sample 4 (fluorescence intensity) was determined as 2640. For the same substance, in test [5], the C5a-mediated calcium flow signal, FLIPR, antibody 0.0 µg/mL was 1870 MFI and 1690 MFI; the C5a-mediated calcium flow signal, FLIPR, antibody 0.01 µg/mL was 2110 MFI and 1890 MFI; the C5a-mediated calcium flow signal, FLIPR, antibody 0.1 µg/mL is 2080 MFI and 1740 MFI; the C5a-mediated calcium flow signal, FLIPR, antibody 0.4 µg/mL is 1920 MFI and 1610 MFI. In addition, in test [5], the C5a-mediated calcium flow signal, FLIPR, antibody 1.1 µg/mL was 1830 MFI and 1790 MFI; the C5a-mediated calcium flow signal, FLIPR, antibody 3.3 µg/mL is 1870 MFI and 1840 MFI; the C5a-mediated calcium flow signal, FLIPR, antibody 10.0 µg/mL is 1730 MFI and 1850 MFI; the C5a-mediated calcium flow signal, FLIPR, antibody 30.0 µg/mL came to 1590 MFI. Moreover, the MFI in [6] was 2.78 MFI and 2.03 MFI. Moreover, the MFI in [7] is 2.79 MFI and 2.01 MFI. The MFI in test [8] was 2.81 MFI and 2 MFI. Moreover, in test [9], the MFI is 2.96 MFI and 1.99 MFI. The MFI in test [10] is 2.88 MFI and 2.01 MFI. Also, the MFI in test [11] was 3.18 MFI and 2.14 MFI. Besides, the MFI in test [12] was 3.22 MFI and 2.21 MFI. Further, the MFI in test [13] was 2.69 MFI and 1.99 MFI.
